Data from US20160024487.

Key:
[1] = target: T1, Lys(Dnp)-ATNATIMPRIVGG-Lys(Abz)
T1 chain: KATNATIMPRIVGGK

[2] = target: T2, Lys(Dnp)-ATNATMKPRIVGG-Lys(Abz)
T2 chain: KATNATMKPRIVGGK

[3] = target: T3, Lys(Dnp)-ATNATFKPRIVGG-Lys(Abz)
T3 chain: KATNATFKPRIVGGK

[4] = target: T4, Lys(Dnp)-ATNATLHPRIVGG-Lys(Abz)
T4 chain: KATNATLHPRIVGGK

[5] = target: T5, Lys(Dnp)-ATNATLFPRIVGG-Lys(Abz)
T5 chain: KATNATLFPRIVGGK

[6] = target: T6, Lys(Dnp)-ATNATFRPRIVGG-Lys(Abz)
T6 chain: KATNATFRPRIVGGK

[7] = target: T7, Lys(Dnp)-ATNATVIPRIVGG-Lys(Abz)
T7 chain: KATNATVIPRIVGGK

[8] = target: T8, Lys(Dnp)-ATNATAKPRIVGG-Lys(Abz)
T8 chain: KATNATAKPRIVGGK

[9] = target: T9, Lys(Dnp)-ATNATIVPRIVGG-Lys(Abz)
T9 chain: KATNATIVPRIVGGK

[10] = target: T10, Lys(Dnp)-ATNATIIPRIVGG-Lys(Abz)
T10 chain: KATNATIIPRIVGGK

[11] = target: T11, Lys(Dnp)-ATNATMVPRIVGG-Lys(Abz)
T11 chain: KATNATMVPRIVGGK

[12] = target: T12, Lys(Dnp)-ATNATLAPRIVGG-Lys(Abz)
T12 chain: KATNATLAPRIVGGK

[13] = target: T13, Lys(Dnp)-ATNATYTPRIVGG-Lys(Abz)
T13 chain: KATNATYTPRIVGGK

[14] = target: T14, Lys(Dnp)-ATNATPGPRIVGG-Lys(Abz)
T14 chain: KATNATPGPRIVGGK

[15] = target: T15, Lys(Dnp)-ATNATNLPRIVGG-Lys(Abz)
T15 chain: KATNATNLPRIVGGK

[16] = target: T16, Lys(Dnp)-ATNATLLPRIVGG-Lys(Abz)
T16 chain: KATNATLLPRIVGGK

[17] = target: T17, Lys(Dnp)-ATNATNRPRIVGG-Lys(Abz)
T17 chain: KATNATNRPRIVGGK

[18] = target: T18, Lys(Dnp)-ATNATVNPRIVGG-Lys(Abz)
T18 chain: KATNATVNPRIVGGK

[19] = target: T19, Lys(Dnp)-ATNATWYPRIVGG-Lys(Abz)
T19 chain: KATNATWYPRIVGGK

[20] = target: T20, Lys(Dnp)-ATNATEIPRIVGG-Lys(Abz)
T20 chain: KATNATEIPRIVGGK

[21] = target: T21, Lys(Dnp)-ATNATKQPRIVGG-Lys(Abz)
T21 chain: KATNATKQPRIVGGK

[22] = target: T22, Lys(Dnp)-ATNATQIPRIVGG-Lys(Abz)
T22 chain: KATNATQIPRIVGGK

[23] = target: T23, Lys(Dnp)-ATNATYMPRIVGG-Lys(Abz)
T23 chain: KATNATYMPRIVGGK

[24] = target: T24, Lys(Dnp)-ATNATTWPRIVGG-Lys(Abz)
T24 chain: KATNATTWPRIVGGK

[25] = target: T25, Lys(Dnp)-ATNATPIPRIVGG-Lys(Abz)
T25 chain: KATNATPIPRIVGGK

[26] = target: T26, Lys(Dnp)-ATNATAHPRIVGG-Lys(Abz)
T26 chain: KATNATAHPRIVGGK

[27] = target: T27, Lys(Dnp)-ATNATKAPRIVGG-Lys(Abz)
T27 chain: KATNATKAPRIVGGK

[28] = target: T28, Lys(Dnp)-ATNATELPRIVGG-Lys(Abz)
T28 chain: KATNATELPRIVGGK

[29] = target: T29, Lys(Dnp)-ATNATMNPRIVGG-Lys(Abz)
T29 chain: KATNATMNPRIVGGK

[30] = target: T30, Lys(Dnp)-ATNATRDPRIVGG-Lys(Abz)
T30 chain: KATNATRDPRIVGGK

[31] = target: T31, Lys(Dnp)-ATNATQDPRIVGG-Lys(Abz)
T31 chain: KATNATQDPRIVGGK

[32] = target: T32, Lys(Dnp)-ATNATYLPRIVGG-Lys(Abz)
T32 chain: KATNATYLPRIVGGK

[33] = target: T33, Lys(Dnp)-ATNATDLPRIVGG-Lys(Abz)
T33 chain: KATNATDLPRIVGGK

[34] = target: T34, Lys(Dnp)-ATNATPMPRIVGG-Lys(Abz)
T34 chain: KATNATPMPRIVGGK

[35] = target: T35, Lys(Dnp)-ATNATNIPRIVGG-Lys(Abz)
T35 chain: KATNATNIPRIVGGK

[36] = target: T36, Lys(Dnp)-ATNATSEPRIVGG-Lys(Abz)
T36 chain: KATNATSEPRIVGGK

[37] = target: T37, Lys(Dnp)-ATNATTHPRIVGG-Lys(Abz)
T37 chain: KATNATTHPRIVGGK

[38] = target: T38, Lys(Dnp)-ATNATDMPRIVGG-Lys(Abz)
T38 chain: KATNATDMPRIVGGK

[39] = target: T39, Lys(Dnp)-ATNATKHPRIVGG-Lys(Abz)
T39 chain: KATNATKHPRIVGGK

[40] = target: T40, Lys(Dnp)-ATNATRYPRIVGG-Lys(Abz)
T40 chain: KATNATRYPRIVGGK

[41] = target: T41, Lys(Dnp)-ATNATIGPRIVGG-Lys(Abz)
T41 chain: KATNATIGPRIVGGK

B1: Human plasma purified Factor Xa (protein)
chain 1: ANSFLEEMKKGHLERECMEETCSYEEAREVFEDSDKTNEFWNKYKDGDQCETSPCQNQGKCKDGLGEYTCTCLEGFEGKNCELFTRKLCSLDNGDCDQFCHEEQNSVVCSCARGYTLADNGKACIPTGPYPCGKQTLER
chain 2: IVGGQECKDGECPWQALLINEENEGFCGGTILSEFYILTAAHCLYQAKRFKVRVGDRNTEQEEGGEAVHEVEVVIKHNRFTKETYDFDIAVLRLKTPITFRMNVAPACLPERDWAESTLMTQKTGIVSGFGRTHEKGRQSTRLKMLEVPYVDRNSCKLSSSFIITQNMFCAGYDTKQEDACQGDSGGPHVTRFKDTYFVTGIVSWGEGCARKGKYGIYTKVTAFLKWIDRSMKTRGLPKAKSHAPEVITSSPLK
- FXa kcat/KM [1]: 2100 M⁻¹ s⁻¹
- FXa kcat/KM [2]: 72 M⁻¹ s⁻¹
- FXa kcat/KM [3]: 55 M⁻¹ s⁻¹
- FXa kcat/KM [4]: 540 M⁻¹ s⁻¹
- FXa kcat/KM [5]: 99 M⁻¹ s⁻¹
- FXa kcat/KM [6]: 430 M⁻¹ s⁻¹
- FXa kcat/KM [7]: 120 M⁻¹ s⁻¹
- FXa kcat/KM [8]: 30 M⁻¹ s⁻¹
- FXa kcat/KM [9]: 360 M⁻¹ s⁻¹
- FXa kcat/KM [10]: 490 M⁻¹ s⁻¹
- FXa kcat/KM [11]: 100 M⁻¹ s⁻¹
- FXa kcat/KM [12]: 230 M⁻¹ s⁻¹
- FXa kcat/KM [13]: 29 M⁻¹ s⁻¹

B2: Human plasma purified Factor Xa (Molecular Innovations, Inc) (protein)
chain 1: ANSFLEEMKKGHLERECMEETCSYEEAREVFEDSDKTNEFWNKYKDGDQCETSPCQNQGKCKDGLGEYTCTCLEGFEGKNCELFTRKLCSLDNGDCDQFCHEEQNSVVCSCARGYTLADNGKACIPTGPYPCGKQTLER
chain 2: IVGGQECKDGECPWQALLINEENEGFCGGTILSEFYILTAAHCLYQAKRFKVRVGDRNTEQEEGGEAVHEVEVVIKHNRFTKETYDFDIAVLRLKTPITFRMNVAPACLPERDWAESTLMTQKTGIVSGFGRTHEKGRQSTRLKMLEVPYVDRNSCKLSSSFIITQNMFCAGYDTKQEDACQGDSGGPHVTRFKDTYFVTGIVSWGEGCARKGKYGIYTKVTAFLKWIDRSMKTRGLPKAKSHAPEVITSSPLK
- FXa kcat/KM [14]: 100 M⁻¹ s⁻¹
- FXa kcat/KM [15]: 110 M⁻¹ s⁻¹
- FXa kcat/KM [16]: 590 M⁻¹ s⁻¹
- FXa kcat/KM [17]: 220 M⁻¹ s⁻¹
- FXa kcat/KM [18]: 70 M⁻¹ s⁻¹
- FXa kcat/KM [19]: 60 M⁻¹ s⁻¹
- FXa kcat/KM [20]: 55 M⁻¹ s⁻¹
- FXa kcat/KM [21]: 100 M⁻¹ s⁻¹
- FXa kcat/KM [22]: 630 M⁻¹ s⁻¹
- FXa kcat/KM [23]: 160 M⁻¹ s⁻¹
- FXa kcat/KM [24]: 21 M⁻¹ s⁻¹
- FXa kcat/KM [25]: 590 M⁻¹ s⁻¹
- FXa kcat/KM [26]: 140 M⁻¹ s⁻¹
- FXa kcat/KM [27]: 52 M⁻¹ s⁻¹
- FXa kcat/KM [28]: 100 M⁻¹ s⁻¹
- FXa kcat/KM [29]: 430 M⁻¹ s⁻¹
- FXa kcat/KM [30]: 1400 M⁻¹ s⁻¹
- FXa kcat/KM [31]: 680 M⁻¹ s⁻¹
- FXa kcat/KM [32]: 340 M⁻¹ s⁻¹
- FXa kcat/KM [33]: 27 M⁻¹ s⁻¹
- FXa kcat/KM [34]: 990 M⁻¹ s⁻¹
- FXa kcat/KM [35]: 38 M⁻¹ s⁻¹
- FXa kcat/KM [36]: 22 M⁻¹ s⁻¹
- FXa kcat/KM [37]: 14 M⁻¹ s⁻¹
- FXa kcat/KM [38]: 11 M⁻¹ s⁻¹
- FXa kcat/KM [39]: 56 M⁻¹ s⁻¹
- FXa kcat/KM [40]: 960 M⁻¹ s⁻¹
- FXa kcat/KM [41]: 170 M⁻¹ s⁻¹
